According to paper PMC4769171:
Positions count from the first letter of the chain named.

Key:
Settings in all cases: EMSA: 10 mM Tris pH 7.5, 50 mM KCl, 2.5% glycerol, 0.05% Nonidet P-40, 1 ug poly(dI-dC), 5 fmol probe, 20 min RT; AFM buffer not in the material
[1] = target: T1, His-H-NS (Salmonella Typhimurium) (UniProt P0A1S2); assay: EMSA
T1 sequence: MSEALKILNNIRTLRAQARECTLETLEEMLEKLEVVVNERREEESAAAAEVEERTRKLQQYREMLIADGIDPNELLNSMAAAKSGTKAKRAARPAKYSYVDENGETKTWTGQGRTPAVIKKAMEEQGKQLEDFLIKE

[2] = target: T2, His-SsrB (unphosphorylated) (UniProt Q7CQM5); assay: EMSA
T2 sequence: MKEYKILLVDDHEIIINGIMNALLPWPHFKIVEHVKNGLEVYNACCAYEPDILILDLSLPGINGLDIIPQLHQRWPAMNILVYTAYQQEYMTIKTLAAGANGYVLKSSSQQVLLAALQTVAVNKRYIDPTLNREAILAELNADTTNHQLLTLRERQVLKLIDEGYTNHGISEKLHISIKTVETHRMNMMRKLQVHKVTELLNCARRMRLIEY

K179A His-SsrB K179A = target: T3, K179A His-SsrB K179A (UniProt Q7CQM5); assay: EMSA
T3 sequence: T2 sequence with K179A

[3] = target: His-SsrB (unphosphorylated);His-H-NS (Salmonella Typhimurium) (UniProt Q7CQM5+P0A1S2); assay: EMSA supershift

AATATTTTTCTCTTTCTGGATAATGGGCTATTTCAACCCACAGCAGTGCAACATCTGTCAGTACTTCTGGTGCCTTTATTTTATGGGGGCAGCTGTCAGATGTGCGATTAAAAAAAGTGGAGTTTCATCA (double strand) [csgD122]
binding [1]: binds
binding [2]: binds
binding (K179A His-SsrB K179A): no binding
binding [3]: binds
